One assay has as its target T1, recombinant human H1b (Homo sapiens, UniProt P10412).
T1 construct: Human histone H1b and H1° were inserted into HA-Pet30c; HA (N); made in house; host or cells: E. coli BL21 (DE3)
Kind of assay: In vitro deacetylation of p300-acetylated recombinant H1b by SirT proteins. It is filed as biochemical. To be noted: equal NAD+-exchange units measured using acetylated BSA as substrate. How it is done:
Detection of H1 acetylation was performed by using 4 μg of histone H1 (Upstate Biotechnology, Inc., Lake Placid, N.Y.) as an acetylated substrate for SirT1 in the NER. Deacetylation was determined by first performing a deacetylation assay using 20 and 40 μg of H1 and 6 nmol of SirT1. H1 was then isolated in the supernatant of chilled 5% perchloric acid, TCA precipitated (Albig, et al. (1998) FEBS Lett. 435:245-250), and resuspended in buffer C containing 100 mM KCl. Deacetylated H1 was then used in a subsequent NER. In vitro acetylation of H1 or recombinant H1b expressed in E. coli was carried out by incubating 10 μg H1 with 2 nmol baculovirus-generated p300 in the presence of 0.875 μCi [H^3]-Ac-CoA (Amersham, Piscataway, N.J.) in HAT buffer (75 mM Tris-HCl [pH 8.8], 135 mM NaCl). Deacetylation was carried out with the specified enzyme as above using 1 μg of the labeled Hi. […] Counts were then determined by liquid scintillation (PERKINELMER, Wellesley, Mass.) . […] In vivo H1 acetylation was analyzed by treating 293 cells for 18 hours in media containing 5 mM nicotinamide. H1 was purified as described (Albig, et al. (1998) supra) and analyzed in the NER. […]
SirT1 activity on histone H1 was directly tested in vitro. […] The same result was observed using recombinant human H1b; however, specificity was also scored in this assay using different SirT proteins.

Assay [1] has as its system pTK-Luc reporter under the control of Gal4. Briefly: Transient transfection Gal4 pTK-Luc reporter assay. Format: cell-based. To be noted: 293F cells, luciferase normalized to β-galactosidase. The protocol:
Transfections. All transfections were carried out in 293F cells using the indicated plasmids and POLYFECT (QIAGEN, Valencia, Calif.) following the protocol provided by the manufacturer. Nuclear and cytoplasmic fractions were isolated by a modified protocol (Dignam, et al. (1983) Methods Enzymol. 101:582-598). Fractions were analyzed by immunoprecipitation with the indicated antibodies followed by immunoblotting, or by luciferase activity (TD20e luminometer; Turner BioSystems, Sunnyvale, Calif.) . In the case of transient transfections, a β-gal reporter was used as a transfection control and the levels of luciferase activity were normalized to those of β-galactosidase, shown as a percentage. dsRNAi was ordered as a custom SMARTPOOL against SirT1 (Dharmacon, Lafayette, Colo.) and was transfected into U2OS cells using RNAFECT (QIAGEN, Valencia, Calif.). After incubation for 48 hours, cells were harvested and lysed with RIPA buffer (50 mM Tris-HCl, pH 7.4, 1% NP40, 0.25% Na-deoxycholate, 150 mM NaCl, 1 mM EDTA, 1 mM PMSF, 1 mM leupeptin, 1 mM aprotinin, and 1 mM pepstatin). Western blots were performed using the indicated antibodies. Total H4 was visualized by both western and COOMASSIE blue staining.
Plasmids. […]
On the technique in general: Reporter assays use an easily measured gene product as a stand-in for the process of interest.

T1 sequence (P10412 2-219): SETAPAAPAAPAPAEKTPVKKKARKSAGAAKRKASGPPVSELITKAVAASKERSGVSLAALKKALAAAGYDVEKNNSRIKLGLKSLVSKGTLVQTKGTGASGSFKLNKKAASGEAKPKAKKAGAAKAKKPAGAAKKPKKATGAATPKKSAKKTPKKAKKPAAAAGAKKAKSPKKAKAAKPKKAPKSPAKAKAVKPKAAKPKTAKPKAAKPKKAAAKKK

B1: SirT2: Recombinant SirT2 expressed in E. coli (protein)
chain: MAEPDPSHPLETQAGKVQEAQDSDSDSEGGAAGGEADMDFLRNLFSQTLSLGSQKERLLDELTLEGVARYMQSERCRRVICLVGAGISTSAGIPDFRSPSTGLYDNLEKYHLPYPEAIFEISYFKKHPEPFFALAKELYPGQFKPTICHYFMRLLKDKGLLLRCYTQNIDTLERIAGLEQEDLVEAHGTFYTSHCVSASCRHEYPLSWMKEKIFSEVTPKCEDCQSLVKPDIVFFGESLPARFFSCMQSDFLKVDLLLVMGTSLQVQPFASLISKAPLSTPRLLINKEKAGQSDPFLGMIMGLGGGMDFDSKKAYRDVAWLGECDQGCLALAELLGWKKELEDLVRREHASIDAQSGAGVPNPSTSASPKKSPPPAKDEARTTEREKPQ
On to B1, for which the H1b deacetylation result with recombinant human H1b is on record as “failed to significantly deacetylate H1b”.

B2: G4-SirT1: SirT1 fused to the Gal4 DNA binding domain (protein)
chain: MKLLSSIEQACDICRLKKLKCSKEKPKCAKCLKNNWECRYSPKTKRSPLTRAHLTEVESRLERLEQLFLLIFPREDLDMILKMDSLQDIKALLTGLFVQDNVNKDAVTDRLASVETDMPLTLRQHRISATSSSEESSNKGQRQLTVSMADEAALALQPGGSPSAAGADREAASSPAGEPLRKRPRRDGPGLERSPGEPGGAAPEREVPAAARGCPGAAAAALWREAEAEAAAAGGEQEAQATAAAGEGDNGPGLQGPSREPPLADNLYDEDDDDEGEEEEEAAAAAIGYRDNLLFGDEIITNGFHSCESDEEDRASHASSSDWTPRPRIGPYTFVQQHLMIGTDPRTILKDLLPETIPPPELDDMTLWQIVINILSEPPKRKKRKDINTIEDAVKLLQECKKIIVLTGAGVSVSCGIPDFRSRDGIYARLAVDFPDLPDPQAMFDIEYFRKDPRPFFKFAKEIYPGQFQPSLCHKFIALSDKEGKLLRNYTQNIDTLEQVAGIQRIIQCHGSFATASCLICKYKVDCEAVRGDIFNQVVPRCPRCPADEPLAIMKPEIVFFGENLPEQFHRAMKYDKDEVDLLIVIGSSLKVRPVALIPSSIPHEVPQILINREPLPHLHFDVELLGDCDVIINELCHRLGGEYAKLCCNPVKLSEITEKPPRTQKELAYLSELPPTPLHVSEDSSSPERTSPPDSSVIVTLLDQAAKSNDDLDVSESKGCMEEKPQEVQTSRNVESIAEQMENPDLKNVGSSTGEKNERTSVAGTVRKCWPNRVAKEQISRRLDGNQYLFLPPNRYIFHGAEVYSDSEDDVLSSSSCGSNSDSGTCQSPSLEEPMEDESEIEEFYNGLEDEPDVPERAGGAGFGTDGDDQEAINEAISVKQEVTDMNYPSNKS
Consider B2, for which, in assay [1], the “repression of reporter expression” value is “approximately 100%”.

B3: SirT3: Recombinant SirT3 expressed from baculovirus in SF9 cells (protein)
chain: MAFWGWRAAAALRLWGRVVERVEAGGGVGPFQACGCRLVLGGRDDVSAGLRGSHGARGEPLDPARPLQRPPRPEVPRAFRRQPRAAAPSFFFSSIKGGRRSISFSVGASSVVGSGGSSDKGKLSLQDVAELIRARACQRVVVMVGAGISTPSGIPDFRSPGSGLYSNLQQYDLPYPEAIFELPFFFHNPKPFFTLAKELYPGNYKPNVTHYFLRLLHDKGLLLRLYTQNIDGLERVSGIPASKLVEAHGTFASATCTVCQRPFPGEDIRADVMADRVPRCPVCTGVVKPDIVFFGEPLPQRFLLHVVDFPMADLLLILGTSLEVEPFASLTEAVRSSVPRLLINRDLVGPLAWHPRSRDVAQLGDVVHGVESLVELLGWTEEMRDLVQRETGKLDGPDK
As for B3, the H1b deacetylation result with recombinant human H1b is reported as “failed to significantly deacetylate H1b”.

Values taken from patent US20070065890A1, “Method for promoting formation of facultative heterochromatin” (priority 2005, published 2007).
